Experimental data published in PMC13044992.

Tests used:
[1] = biological target: S100i1 from Danio rerio (wild type) (Danio rerio) (UniProt Q6XG62); assay: crystal structure; sitting-drop vapor diffusion at 291 K, 10 mg/mL protein; apo S100i1 (0.2 M Li sulfate, Tris-HCl pH 8.5, 25% PEG 4000), Na+-S100i1 (0.2 M Na acetate, Tris-HCl pH 9.5, 35% PEG 4000), Mg2+-S100i2 (0.2 M MgCl2, Tris-HCl pH 8.5, 30% PEG 4000)
[2] = biological target: S100i1 from Danio rerio (wild type) (Danio rerio) (UniProt Q6XG62); assay: SEC; 24 mL Superdex 75 Increase 10/300 GL, 20 mM Tris-HCl pH 7.5, 100 mM NaCl; self-association (homodimer)
[3] = biological target: S100i2 from Danio rerio (wild type) (Danio rerio) (UniProt A3FKT8); assay: crystal structure; sitting-drop vapor diffusion at 291 K, 10 mg/mL protein; apo S100i1 (0.2 M Li sulfate, Tris-HCl pH 8.5, 25% PEG 4000), Na+-S100i1 (0.2 M Na acetate, Tris-HCl pH 9.5, 35% PEG 4000), Mg2+-S100i2 (0.2 M MgCl2, Tris-HCl pH 8.5, 30% PEG 4000)
[4] = biological target: S100i2 from Danio rerio (wild type) (Danio rerio) (UniProt A3FKT8); assay: SEC; 24 mL Superdex 75 Increase 10/300 GL, 20 mM Tris-HCl pH 7.5, 100 mM NaCl; self-association (homodimer)

Substance	stoichiometry N [1]	stoichiometry N [2]	stoichiometry N [3]	stoichiometry N [4]
S100i1 from Danio rerio (wild type) (from UniProt Q6XG62 1-95) (natural protein)	2	2		
S100i2 from Danio rerio (wild type) (from UniProt A3FKT8 1-97) (natural protein)			2	2
